Results taken from patent US20210015931A1 (KOREA INSTITUTE OF SCIENCE AND TECHNOLOGY, published 2021).

Target: T1, CD47 receptors on HT-29 cells (human-derived colon cancer cells) (human, UniProt Q08722 19-323)
T1 construct: whole, on cells
Assay: confocal microscopy on HT-29 cells, uptake with and without CD47 antibody
Description: It was investigated whether the fusion protein-siRNA complex prepared in Example 2 is effectively taken up into cells in vitro. First, 2×10⁵ HT-29 cells, which are human-derived colon cancer cells, were seeded onto a 35-mm cover glass bottom dish. Then, after adding SIRPα protein (SIRPα), CD47 siRNA or the fusion protein-siRNA complex prepared in Example 2 (SIPRα-CD47 siRNA), the cells were cultured at 37° C. for a day. Then, CD47 SiRNA was stained red by using the TOTO3 stain. Next, after treating with the fusion protein-siRNA complex separated and purified in Example 2 at a concentration of 100 pmol/mL, the cells were cultured for 4 hours in a carbon dioxide incubator at 37° C. Then, the cells were treated with a fixative and the SIRPα protein was stained green using FITC-labeled His-tag antibody. After staining the nuclei of the cells by treating with a 4′,6-diamidino-2-phenylindole (DAPI) solution for 10 minutes, fluorescence was measured by confocal microscopy.
A mixture solution of the fusion protein-siRNA complex prepared in Example 2 and the CD47 antibody (Ab) was used as a control group.

T1 sequence (Q08722 19-323): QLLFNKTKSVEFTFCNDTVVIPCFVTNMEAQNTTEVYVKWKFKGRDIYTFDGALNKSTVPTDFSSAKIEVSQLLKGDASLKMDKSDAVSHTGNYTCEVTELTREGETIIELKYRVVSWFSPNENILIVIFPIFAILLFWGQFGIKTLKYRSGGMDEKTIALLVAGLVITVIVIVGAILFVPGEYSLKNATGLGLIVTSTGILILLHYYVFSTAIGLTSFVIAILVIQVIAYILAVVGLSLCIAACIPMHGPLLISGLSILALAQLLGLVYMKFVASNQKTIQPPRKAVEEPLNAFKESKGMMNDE

binding result: binds
B1: fusion protein-siRNA complex prepared in Example 2 (SIRPα-CD47 siRNA) (other)
chain: EEELQIIQPDKSVLVAAGETATLRCTITSLFPVGPIQWFRGAGPGRVLIYNQRQGPFPRVTTVSDTTKRNNMDFSIRIGNITPADAGTYYCIKFRKGSPDDVEFKSGAGTELSVRAKPVDGGFLGGGGCG
modifications: CD47 siRNA (sense SEQ ID NO: 17, antisense SEQ ID NO: 18) bound 1:1 through maleimide at the 3'-end of the sense strand to the thiol group of the cysteine at the end of the fusion protein
notes: The protein was expressed from pET28a in E. coli, purified on a His-tag column and detected with a His-tag antibody; also called SIPRα-CD47 siRNA; immunoregulatory protein-siRNA complex
